What was measured:
Experiment in all cases: cell-based or functional assay
[1] = biological target: T1, human E-selectin, cell-surface expressed (human, UniProt P16581 22-610)
T1 sequence: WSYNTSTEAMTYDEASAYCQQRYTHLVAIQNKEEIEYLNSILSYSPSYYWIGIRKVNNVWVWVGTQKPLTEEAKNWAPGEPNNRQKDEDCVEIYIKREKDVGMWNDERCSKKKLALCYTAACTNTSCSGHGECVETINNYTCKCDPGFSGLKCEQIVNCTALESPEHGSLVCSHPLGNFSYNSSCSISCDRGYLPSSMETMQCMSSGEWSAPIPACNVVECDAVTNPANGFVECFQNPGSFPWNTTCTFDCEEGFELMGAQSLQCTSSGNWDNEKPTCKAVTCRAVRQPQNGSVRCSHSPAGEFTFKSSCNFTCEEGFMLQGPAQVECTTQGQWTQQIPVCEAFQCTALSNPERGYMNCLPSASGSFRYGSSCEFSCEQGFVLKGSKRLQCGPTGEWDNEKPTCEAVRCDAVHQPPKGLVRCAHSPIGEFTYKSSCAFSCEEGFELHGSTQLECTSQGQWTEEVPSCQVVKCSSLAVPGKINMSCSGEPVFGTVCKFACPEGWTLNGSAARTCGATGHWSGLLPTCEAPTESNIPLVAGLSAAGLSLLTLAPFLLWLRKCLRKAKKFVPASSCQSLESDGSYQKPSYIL

[2] = biological target: T2, cynomolgus monkey E-selectin, cell-surface expressed (cynomolgus monkey, UniProt P16581 22-610 (human entry))
T2 chain: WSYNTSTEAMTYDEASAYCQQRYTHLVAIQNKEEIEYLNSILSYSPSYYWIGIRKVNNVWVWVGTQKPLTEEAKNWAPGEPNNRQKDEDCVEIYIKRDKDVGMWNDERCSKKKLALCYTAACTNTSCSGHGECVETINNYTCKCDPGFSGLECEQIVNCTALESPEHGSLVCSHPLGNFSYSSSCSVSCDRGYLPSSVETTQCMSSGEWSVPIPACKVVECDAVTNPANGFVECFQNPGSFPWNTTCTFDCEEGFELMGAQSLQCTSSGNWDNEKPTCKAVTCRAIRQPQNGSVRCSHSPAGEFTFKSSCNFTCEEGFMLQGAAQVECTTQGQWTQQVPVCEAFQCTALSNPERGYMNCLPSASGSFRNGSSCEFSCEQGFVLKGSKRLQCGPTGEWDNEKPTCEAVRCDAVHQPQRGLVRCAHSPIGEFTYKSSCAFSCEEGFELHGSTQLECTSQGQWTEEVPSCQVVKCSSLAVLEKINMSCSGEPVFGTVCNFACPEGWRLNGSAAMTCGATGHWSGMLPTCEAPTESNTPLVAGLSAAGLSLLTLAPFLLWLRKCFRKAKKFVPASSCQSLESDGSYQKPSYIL

[3] = biological target: T3, recombinant histidine-tagged human E-selectin (Sino Biologicals; 13025-H08H) (human, UniProt P16581 22-556)
T3 sequence (looked up): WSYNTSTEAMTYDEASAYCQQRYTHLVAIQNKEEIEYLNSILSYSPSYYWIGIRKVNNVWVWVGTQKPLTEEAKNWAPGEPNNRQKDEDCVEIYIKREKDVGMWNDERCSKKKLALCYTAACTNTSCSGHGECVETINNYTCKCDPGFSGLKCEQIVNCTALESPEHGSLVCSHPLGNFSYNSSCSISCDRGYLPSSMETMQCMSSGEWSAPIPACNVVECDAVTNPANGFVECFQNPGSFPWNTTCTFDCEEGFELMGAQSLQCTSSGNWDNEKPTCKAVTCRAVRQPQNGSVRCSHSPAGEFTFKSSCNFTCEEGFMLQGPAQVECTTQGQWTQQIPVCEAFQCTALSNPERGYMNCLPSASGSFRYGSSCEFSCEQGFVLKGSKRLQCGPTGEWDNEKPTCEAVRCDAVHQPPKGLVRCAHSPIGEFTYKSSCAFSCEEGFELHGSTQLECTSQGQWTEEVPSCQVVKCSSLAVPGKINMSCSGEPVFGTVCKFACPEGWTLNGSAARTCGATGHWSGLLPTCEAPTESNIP

HL-60 adhesion under physiological flow to human CHO-E-selectin cells, IC50 [1]: 4.41 nM
HL-60 adhesion under physiological flow to cells expressing cynomolgus monkey E-selectin, IC50 [2]: 4.34 nM
HL-60 cellular adhesion under physiological flow to purified soluble human E-selectin protein, IC50 [3]: 15.3 nM
adhesion of SCD patient blood cells under physiological flow to recombinant E-selectin, IC50 (one donor) [3]: 6.17 nM
adhesion of SCD patient blood cells under physiological flow to recombinant E-selectin, IC50 (other donor) [3]: 18.7 nM
B1: optimized anti-E-selectin antibody 1444 (antibody, human IgG1, kappa, V domains shown)
VH: EVQLVESGGGLVQPGGSLRLSCAASGYAIRSAYMHWVRQAPGKGLEWVARIDPANGNTIYVDSVTGRFTISADNAKNSAYLQMNSLRAEDTAVYYCAMDLYSTSEYWGQGTLVTVSS
VL: DIQMTQSPSSLSASVGDRVTITCKTSQNIERYLNWYQQKPGKAPKLLIYAASSLQSGVPSRFSGSGSGTDFTLTISSLQPEDFATYFCLQDNAWPLTFGQGTKVEIKR
notes: effector-null human IgG1, kappa
